# Experimental data reported in patent US20260217814 (published 2026).
# T1: human IL-17A (human)
# T1 chain: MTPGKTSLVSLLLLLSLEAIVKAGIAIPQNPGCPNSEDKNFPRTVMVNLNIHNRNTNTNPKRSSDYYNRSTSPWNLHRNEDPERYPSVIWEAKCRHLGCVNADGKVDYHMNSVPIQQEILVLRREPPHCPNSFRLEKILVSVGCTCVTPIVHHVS
# T2: IL-17D (human)
# T2 chain: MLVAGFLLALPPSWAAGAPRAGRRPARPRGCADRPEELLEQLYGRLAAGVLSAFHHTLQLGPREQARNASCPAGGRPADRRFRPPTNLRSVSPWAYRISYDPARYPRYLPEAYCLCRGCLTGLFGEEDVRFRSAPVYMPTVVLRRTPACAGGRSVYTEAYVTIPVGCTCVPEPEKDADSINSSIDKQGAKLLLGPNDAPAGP
# T3: IL-17B (human)
# T3 chain: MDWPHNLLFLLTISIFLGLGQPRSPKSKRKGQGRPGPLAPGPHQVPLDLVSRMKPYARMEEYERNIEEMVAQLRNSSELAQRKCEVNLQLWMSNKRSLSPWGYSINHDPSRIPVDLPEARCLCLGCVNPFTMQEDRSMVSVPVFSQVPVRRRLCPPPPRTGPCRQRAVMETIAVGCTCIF
# T4: IL-17F (human)
# T4 chain: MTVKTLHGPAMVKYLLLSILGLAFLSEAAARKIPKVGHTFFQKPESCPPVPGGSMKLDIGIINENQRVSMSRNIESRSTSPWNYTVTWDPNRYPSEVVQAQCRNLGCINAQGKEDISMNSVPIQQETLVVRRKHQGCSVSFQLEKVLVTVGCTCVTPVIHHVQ
# T5: IL-17C (human)
# T5 chain: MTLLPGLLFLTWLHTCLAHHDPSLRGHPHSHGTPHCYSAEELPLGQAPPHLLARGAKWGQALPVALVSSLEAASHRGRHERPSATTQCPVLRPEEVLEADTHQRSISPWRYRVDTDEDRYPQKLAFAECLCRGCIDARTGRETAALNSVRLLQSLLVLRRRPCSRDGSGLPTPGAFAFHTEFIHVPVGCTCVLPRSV
# T6: IL-17E (human)
# T6 chain: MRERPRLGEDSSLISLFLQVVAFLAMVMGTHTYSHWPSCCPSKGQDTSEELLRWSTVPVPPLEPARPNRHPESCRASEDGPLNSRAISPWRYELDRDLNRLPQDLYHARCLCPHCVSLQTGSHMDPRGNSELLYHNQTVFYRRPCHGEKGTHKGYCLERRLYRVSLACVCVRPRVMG
# B1: A5 TNFa arm (antibody)
# chain 1: EVQLVESGGGLVQPGGSLRLSCAASGIDFSTYGISWVRQAPGKGLEWIAYIYPDYGITDYASWVNGRFTISLDNAQNTVYLQMNSLRAEDTAVYYCARSGSYYSRGWGAHYFNLWGQGTLVTVSSASTKGPSVFPLAPSSKSTSGGTAALGCLVKDYFPEPVTVSWNSGALTSGVHTFPAVLQSSGLYSLSSVVTVPSSSLGTQTYICNVNHKPSNTKVDKKVEPKSCGGGGSGGGGSDIQMTQSPSSLSASVGDRVTITCQASQTINYWLAWYQQKPGKAPKLLIYRASTLASGVPSRFSGSGSGTDFTLTISSLQPEDFATYYCQNYYYSTSRSYGFGGGTKLTVLGGGGGSGGGGSGGGGSGGGGSEVQLVESGGGLVQPGGSLRLSCAASGFSFSSDYWMCWVRQAPGKGLEWIGCIYAGDVDDTDYASWARGRFTISRDNSKNTVYLQMNSLRAEDTAVYYCARVDGFDITYFDLWGQGTLVTVSS
# chain 2: DIQMTQSPSSLSASVGDRVTINCQASESISSWLAWYQQKPGKRPKLLIYKASTLASGVPSRFSGSGSGTDYTLTISSLQPEDFATYYCQGYYLDSSVDDNVFGGGTKLTVLGRTRTVAAPSVFIFPPSDEQLKSGTASVVCLLNNFYPREAKVQWKVDNALQSGNSQESVTEQDSKDSTYSLSSTLTLSKADYEKHKVYACEVTHQGLSSPVTKSFNRGECGGGGSGGGGSDIQMTQSPSSLSASVGDRVTITCQSSESVYSNNQLSWYQQKPGQPPKLLIYDASDLASGVPSRFSGSGSGTDFTLTISSLQPEDFATYYCAGGFSSSSDTAFGGGTKLTVLGGGGGSGGGGSGGGGSGGGGSEVQLVESGGGLVQPGGSLRLSCAASGFSLSSNAMGWVRQAPGKGLEYIGIISVGGFTYYASWAKGRFTISRDNSKNTVYLQMNSLRAEDTATYFCARDRHGGDSSGAFYLWGQGTLVTVSS
# B2: A4 IL-17A arm (antibody)
# chain 1: EVQLVESGGGLVQPGGSLRLSCAASGFSFSSDYWMCWVRQAPGKGLEWIGCIYAGDVDDTDYASWARGRFTISRDNSKNTVYLQMNSLRAEDTAVYYCARVDGFDITYFDLWGQGTLVTVSSASTKGPSVFPLAPSSKSTSGGTAALGCLVKDYFPEPVTVSWNSGALTSGVHTFPAVLQSSGLYSLSSVVTVPSSSLGTQTYICNVNHKPSNTKVDKKVEPKSCGGGGSGGGGSDIQMTQSPSSLSASVGDRVTITCQSSESVYSNNQLSWYQQKPGQPPKLLIYDASDLASGVPSRFSGSGSGTDFTLTISSLQPEDFATYYCAGGFSSSSDTAFGGGTKLTVLGGGGGSGGGGSGGGGSGGGGSEVQLVESGGGLVQPGGSLRLSCAASGFSLSSNAMGWVRQAPGKGLEYIGIISVGGFTYYASWAKGRFTISRDNSKNTVYLQMNSLRAEDTATYFCARDRHGGDSSGAFYLWGQGTLVTVSS
# chain 2: DIQMTQSPSSLSASVGDRVTITCQASQTINYWLAWYQQKPGKAPKLLIYRASTLASGVPSRFSGSGSGTDFTLTISSLQPEDFATYYCQNYYYSTSRSYGFGGGTKLTVLGRTRTVAAPSVFIFPPSDEQLKSGTASVVCLLNNFYPREAKVQWKVDNALQSGNSQESVTEQDSKDSTYSLSSTLTLSKADYEKHKVYACEVTHQGLSSPVTKSFNRGECGGGGSGGGGSDIQMTQSPSSLSASVGDRVTINCQASESISSWLAWYQQKPGKRPKLLIYKASTLASGVPSRFSGSGSGTDYTLTISSLQPEDFATYYCQGYYLDSSVDDNVFGGGTKLTVLGGGGGSGGGGSGGGGSGGGGSEVQLVESGGGLVQPGGSLRLSCAASGIDFSTYGISWVRQAPGKGLEWIAYIYPDYGITDYASWVNGRFTISLDNAQNTVYLQMNSLRAEDTAVYYCARSGSYYSRGWGAHYFNLWGQGTLVTVSS
# B3: A4 TNFa arm (antibody)
# chain 1: EVQLVESGGGLVQPGGSLRLSCAASGFSFSSDYWMCWVRQAPGKGLEWIGCIYAGDVDDTDYASWARGRFTISRDNSKNTVYLQMNSLRAEDTAVYYCARVDGFDITYFDLWGQGTLVTVSSASTKGPSVFPLAPSSKSTSGGTAALGCLVKDYFPEPVTVSWNSGALTSGVHTFPAVLQSSGLYSLSSVVTVPSSSLGTQTYICNVNHKPSNTKVDKKVEPKSCGGGGSGGGGSDIQMTQSPSSLSASVGDRVTITCQSSESVYSNNQLSWYQQKPGQPPKLLIYDASDLASGVPSRFSGSGSGTDFTLTISSLQPEDFATYYCAGGFSSSSDTAFGGGTKLTVLGGGGGSGGGGSGGGGSGGGGSEVQLVESGGGLVQPGGSLRLSCAASGFSLSSNAMGWVRQAPGKGLEYIGIISVGGFTYYASWAKGRFTISRDNSKNTVYLQMNSLRAEDTATYFCARDRHGGDSSGAFYLWGQGTLVTVSS
# chain 2: DIQMTQSPSSLSASVGDRVTITCQASQTINYWLAWYQQKPGKAPKLLIYRASTLASGVPSRFSGSGSGTDFTLTISSLQPEDFATYYCQNYYYSTSRSYGFGGGTKLTVLGRTRTVAAPSVFIFPPSDEQLKSGTASVVCLLNNFYPREAKVQWKVDNALQSGNSQESVTEQDSKDSTYSLSSTLTLSKADYEKHKVYACEVTHQGLSSPVTKSFNRGECGGGGSGGGGSDIQMTQSPSSLSASVGDRVTINCQASESISSWLAWYQQKPGKRPKLLIYKASTLASGVPSRFSGSGSGTDYTLTISSLQPEDFATYYCQGYYLDSSVDDNVFGGGTKLTVLGGGGGSGGGGSGGGGSGGGGSEVQLVESGGGLVQPGGSLRLSCAASGIDFSTYGISWVRQAPGKGLEWIAYIYPDYGITDYASWVNGRFTISLDNAQNTVYLQMNSLRAEDTAVYYCARSGSYYSRGWGAHYFNLWGQGTLVTVSS
# B4: A3 TNFa arm (antibody)
# chain 1: EVQLVESGGGLVQPGGSLRLSCAASGFSLSSNAMGWVRQAPGKGLEYIGIISVGGFTYYASWAKGRFTISRDNSKNTVYLQMNSLRAEDTATYFCARDRHGGDSSGAFYLWGQGTLVTVSSASTKGPSVFPLAPSSKSTSGGTAALGCLVKDYFPEPVTVSWNSGALTSGVHTFPAVLQSSGLYSLSSVVTVPSSSLGTQTYICNVNHKPSNTKVDKKVEPKSCGGGGSGGGGSDIQMTQSPSSLSASVGDRVTITCQASQTINYWLAWYQQKPGKAPKLLIYRASTLASGVPSRFSGSGSGTDFTLTISSLQPEDFATYYCQNYYYSTSRSYGFGGGTKLTVLGGGGGSGGGGSGGGGSGGGGSEVQLVESGGGLVQPGGSLRLSCAASGFSFSSDYWMCWVRQAPGKGLEWIGCIYAGDVDDTDYASWARGRFTISRDNSKNTVYLQMNSLRAEDTAVYYCARVDGFDITYFDLWGQGTLVTVSS
# chain 2: DIQMTQSPSSLSASVGDRVTITCQSSESVYSNNQLSWYQQKPGQPPKLLIYDASDLASGVPSRFSGSGSGTDFTLTISSLQPEDFATYYCAGGFSSSSDTAFGGGTKLTVLGRTRTVAAPSVFIFPPSDEQLKSGTASVVCLLNNFYPREAKVQWKVDNALQSGNSQESVTEQDSKDSTYSLSSTLTLSKADYEKHKVYACEVTHQGLSSPVTKSFNRGECGGGGSGGGGSDIQMTQSPSSLSASVGDRVTINCQASESISSWLAWYQQKPGKRPKLLIYKASTLASGVPSRFSGSGSGTDYTLTISSLQPEDFATYYCQGYYLDSSVDDNVFGGGTKLTVLGGGGGSGGGGSGGGGSGGGGSEVQLVESGGGLVQPGGSLRLSCAASGIDFSTYGISWVRQAPGKGLEWIAYIYPDYGITDYASWVNGRFTISLDNAQNTVYLQMNSLRAEDTAVYYCARSGSYYSRGWGAHYFNLWGQGTLVTVSS
# B5: A2 (27-07-G02-sc02) (antibody)
# chain: DIQMTQSPSSLSASVGDRVTITCQASQTINYWLAWYQQKPGKPPKLLIYRASTLASGVPSRFSGSGSGTDFTLTISSLQPEDFATYYCQNYYYSTSRSYGFGGGTKLTVLGGGGGSGGGGSGGGGSGGGGSEVQLVESGGGLVKPEGSLRLSCAASGFSFSSDYWMCWVRQAPGKGLEWIACIYAGDVDDTDYASWARGRFTISRDNSKNTVYLQMNSLRAEDTAVYYCARVDGFDITYFDLWGQGTLVTVSS
# B6: PRO592 (27-31-C04-sc02) (antibody)
# chain: DIQMTQSPSSLSASVGDRVTITCQASESIYRYLSWYQQKPGKAPKLLIYLASTLTSGVPSRFSGSGSGTDFTLTISSLQPEDFATYYCQSNFGTASTTYYNTFGGGTKLTVLGGGGGSGGGGSGGGGSGGGGSEVQLVESGGGLVQPGGSLTLSCAASGFSFSGFYYMCWVRQAPGKGLEWIGCIDTGDGTTYYASWAKGRFTISRDNSKNTVYLQMNSLRAEDTAVYYCARDAAYGGYAYPAHGMDLWGPGTLVTVSS
# Key:
# human TNFa = human TNFa (human); assay: SPR
# human IL-17A [1] = target: T1, human IL-17A; assay: SPR
# IL-17D = target: T2, IL-17D; assay: competition
# IL-17B = target: T3, IL-17B; assay: competition ELISA
# IL-17F = target: T4, IL-17F; assay: competition ELISA
# human IL-17A [2] = target: T1, human IL-17A; assay: SPR, direct setup
# IL-17C = target: T5, IL-17C; assay: competition ELISA
# IL-17E = target: T6, IL-17E; assay: competition ELISA
# human IL-17A [3] = target: T1, human IL-17A; assay: SPR, capture setup
Binder,Kd (human TNFa),binding result (IL-17D),binding result (IL-17B),binding result (IL-17F),Kd (human IL-17A [2]),binding result (IL-17C),binding result (IL-17E),Kd (human IL-17A [3]),also measured
B1,0.1 nM,,,,,,,,
B2,,,,,,,,,Kd (human IL-17A [1]): 0.337 nM
B3,0.257 nM,,,,,,,,
B4,< 0.0232 nM,,,,,,,,
B5,,no binding,no binding,no binding,0.055 nM,no binding,no binding,3 nM,
B6,,no binding,no binding,no binding,0.038 nM,no binding,no binding,0.37 nM,
